Laboratory results: publication PMC3520970 (PLoS ONE, 2012)
Changes are numbered by the printed parent chain. Numbers in names are those of the source.

B1: Maize [Δ1–16, Δ287–300]-Pro-RIP (enzyme)
chain: KRIVPKFTEIFPVEDANYPYSAFIASVRKDVIKHCTDHKGIFQPVLPPEKKVPELWLYTELKTRTSSITLAIRMDNLYLVGFRTPGGVWWEFGKDGDTHLLGDNPRWLGFGGRYQDLIGNKGLETVTMGRAEMTRAVNDLAKKKKMATLEEEEVQMQMQMPEAADLAAAAAADPQADTKSKLVKLVVMVCEGLRFNTVSRTVDAGFNSQHGVTLTVTQGKQVQKWDRISKAAFEWADHPTAVIPDMQKLGIKDKNEAARIVALVKNQTTA
B2: Maize [Δ1–16, Δ163–164, Δ167–189, Δ287–300]-Pro-RIP (enzyme)
chain: KRIVPKFTEIFPVEDANYPYSAFIASVRKDVIKHCTDHKGIFQPVLPPEKKVPELWLYTELKTRTSSITLAIRMDNLYLVGFRTPGGVWWEFGKDGDTHLLGDNPRWLGFGGRYQDLIGNKGLETVTMGRAEMTRAVNDLAKKKKMLEPQADTKSKLVKLVVMVCEGLRFNTVSRTVDAGFNSQHGVTLTVTQGKQVQKWDRISKAAFEWADHPTAVIPDMQKLGIKDKNEAARIVALVKNQTTA
B3: MOD [K158A-K161A] (enzyme)
chain: B2 chain with K142A, K143A, K144A, K145A
B4: P2 on rat liver ribosome (natural protein, rat (endogenous in rat liver ribosome), UniProt P02401 1-115, looked up)
chain: MRYVASYLLAALGGNSNPSAKDIKKILDSVGIEADDERLNKVISELNGKNIEDVIAQGVGKLASVPAGGAVAVSAAPGSAAPAAGSAPAAAEEKKDEKKEESEESDDDMGFGLFD
notes: also called P-protein P2

Experiments:
[1] = target: P2 on rat liver ribosome (rat (endogenous in rat liver ribosome)) (UniProt P02401); conditions: scale: arbitrary
Ribosomal protein P2 [2] = target: Ribosomal protein P2 (UniProt P05387)
Ribosomal protein P2 [3] = target: Ribosomal protein P2 (UniProt P05387); assay: SPR; BIAcore 3000; P2 amine-coupled to CM5 chip (1300 RU); RIPs injected at 30 µl/min in 20 mM Tris, 30 mM NaCl, 0.005% Tween 20, pH 7.4; KD from RU at equilibrium
P2 on rat liver ribosome = target: B4; assay: cell-based or functional assay
Ribosomal protein P2 [4] = target: Ribosomal protein P2 (UniProt P05387 1-115); assay: cell-based or functional assay
His-Myc-tagged MOD = target: T1, His-Myc-tagged MOD (maize, UniProt P25891 17-286, Δ163–164 | Δ167–189, labelled with the crosslinker NHS-SS-Diazirine (SDAD)); assay: cross-linking; SDAD-labelled Myc-MOD (90 µM) with rat liver ribosome (0.8 µM) in PBS, room temperature 30 minutes, UV 365 nm for an hour; western blot with anti-Myc and anti-P; conditions: both partners purified
T1 construct: source: E. coli BL21(DE3)pLysS, purified (HisTrap); not shown: Myc, C-terminal, kept
T1 sequence: B2 chain

Molecule | N-glycosidase activity on rat liver ribosome, folds increased to untreated (P2 on rat liver ribosome) [fold] | relative N-glycosidase activity on rat liver ribosome (5 nM RIP, qPCR) (P2 on rat liver ribosome) | also measured
Trichosanthin (enzyme) | – | – | relative N-glycosidase activity on rat liver ribosome (5 nM RIP, qPCR) [1]: 2610; cytotoxicity to 293T cells (MTT, 72 hours), EC50 (Ribosomal protein P2 [2]): 0.63 µM; Kd (Ribosomal protein P2 [3]): 612 µM
B1 | 1.59 | 6.06 arbitrary (ratio multiplied by an arbitrary factor) | –
B2 | 14.3 | 54.3 arbitrary (ratio multiplied by an arbitrary factor) | cytotoxicity to 293T cells (MTT, 72 hours), IC50 (also called EC50) (Ribosomal protein P2 [4]): 7.88 µM
B3 | 0.85 | 3.24 arbitrary (ratio multiplied by an arbitrary factor) | –
B4 | – | – | binding result (His-Myc-tagged MOD): binds
